In assay [1] the target is T1, recombinant human Tau-412 protein (human, UniProt P10636-7 1-412).
T1 construct: Analyte of the SPR study; also called human tau (1N4R, 412 amino acids)
Description: SPR Biacore T200, mAb captured on Protein A, Tau-412 analyte, 1-to-1 model, chip A11/2. How it is done:
(§1) Kinetic data was obtained at a flow rate of 40 μL/min to minimize any potential mass transfer effects. Two repeats of the blank (no antigen) and the 2.5 nM concentration of the analyte were programmed into the kinetic run in order to check the stability of both the surface and analyte over the kinetic cycles. For the initial kinetic runs, 2-fold dilutions of Tau-412 from 40 nM to 0.156 nM were run. For kinetic analysis and on subsequent runs, an analyte range of 20 nM to 0.625 nM was selected. This range covered multiple analyte concentrations both above and below the reported KD.
(§2) The association phase was monitored for 500 seconds to allow some of the higher concentrations of analyte to reach steady state. In order to observe a sufficient signal decrease (>10%) during the dissociation phase of the kinetic cycle, dissociation was measured for 1200 seconds. As discussed in Section 5, the Fcs were allowed to stabilize for 600 seconds after each regeneration step. The signal from the reference channel Fc1 was subtracted from that of Fc2, Fc3 and Fc4.
(§3) The kinetic parameters for the interaction of Tau-412 with the 7 mAbs as measured using the Protein A capture system on the Biacore T200 are shown in Table F-2. To correct for differences in the capture level of the antibody between each binding cycle, a local Rₘₐₓ parameter was used in the 1-to-1 binding model. Kinetic analysis was performed in three independent runs using fresh preparations of Tau-412 and antibody. Run 1 and runs 2+3 used different vials of the antigen Tau-412; therefore the reported errors associated with the mean response probably represent variation in preparation of the analyte and differences in assay set-up and run. From run 1 to runs 2+3, the amount of antibody injected was adjusted to try to get closer to the target 300 RU capture levels.

The target of assay [2] is T2, human tau (human, UniProt P10636 2-60).
T2 construct: also called soluble human tau; human tau protein
T2 sequence (P10636 2-60 limits assumed): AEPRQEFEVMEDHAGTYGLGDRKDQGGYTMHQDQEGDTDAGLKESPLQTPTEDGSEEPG
Description: competition ELISA on plate-coated human tau against biotinylated HJ8.5; IC50 normalised to chimeric HJ8.5; column C2N Run 2.

Assay [3] concerns the target T2, human tau. Description: competition ELISA on plate-coated human tau against biotinylated HJ8.5; IC50 normalised to chimeric HJ8.5; column C2N Run 1.
The target in assay [4] is T1, recombinant human Tau-412 protein. Briefly: SPR Biacore T200, mAb captured on Protein A, Tau-412 analyte, 1-to-1 model, chip A11/1. The procedure: as §1, §2, §3
Assay [5] deals with T2, human tau. Description: competition ELISA on plate-coated human tau against biotinylated HJ8.5; IC50 normalised to chimeric HJ8.5; column External.
Assay [6] addresses T1, recombinant human Tau-412 protein. Briefly: SPR Biacore T200, Protein A capture, mean of the VH2/VK2 runs. How it is done: as §1, §2, §3
The target is the same in assay [7]. Description: SPR Biacore T200, Protein A capture, mean of the VH1/VK3 runs. How it is done:
as §1, §2, §3

Assay [8] shares this target. Description: SPR Biacore T200, Protein A capture, mean of the VH2/VK3 runs. The procedure: as §1, §2, §3

T1 sequence (P10636 other isoform, or with tags, fused parts or gaps limits assumed): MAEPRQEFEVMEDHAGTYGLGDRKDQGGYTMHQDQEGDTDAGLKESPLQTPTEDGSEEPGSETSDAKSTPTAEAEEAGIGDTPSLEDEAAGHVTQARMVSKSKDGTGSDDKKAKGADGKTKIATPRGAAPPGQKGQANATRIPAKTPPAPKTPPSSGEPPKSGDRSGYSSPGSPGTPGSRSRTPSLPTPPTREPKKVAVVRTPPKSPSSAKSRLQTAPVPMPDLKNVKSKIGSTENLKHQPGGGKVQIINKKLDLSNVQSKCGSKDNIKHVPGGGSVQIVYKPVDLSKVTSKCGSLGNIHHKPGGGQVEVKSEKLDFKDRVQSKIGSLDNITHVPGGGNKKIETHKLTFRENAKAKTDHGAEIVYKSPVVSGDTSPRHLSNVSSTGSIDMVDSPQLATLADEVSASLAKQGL

B1: VH2/VK2 humanized anti-tau antibody (antibody, human IgG4 S228P, kappa, V domains shown)
VH: EVKVVESGGGLVQPGGSLKLSCVVSGFTFSNYWVNWVRQAPGKGLEWVAQIRLKSDNYATHYEESVKGRFTISRDDSKSSVYLQMNSLRAEDTGIYYCTNWEDYWGQGTTVTVSS
VL: DIVLTQSPDSLAVSLGERATISCRASQSVSTSRYSYIHWYQQKPGQPPKLLIKYASNLESGVPSRFSGSGSGTDFTLNIHPLEPEDFATYYCHHSWEIPLTFGQGTKLEIKR
notes: Humanized variant of HJ8.5
On to B1, for which the figures for the Kd in assay [1], in assay [4] and in assay [6] were 2.06 nM, 2.4 nM and 2.23 nM, respectively. For the same molecule, the figures for the koff in assay [1], in assay [4] and in assay [6] were 0.000587 s⁻¹, 0.000628 s⁻¹ and 0.000608 s⁻¹, respectively. The kon in assay [1] worked out at 284000 M⁻¹ s⁻¹; in assay [4], 262000 M⁻¹ s⁻¹; in assay [6], 273000 M⁻¹ s⁻¹. Further, the results for the “IC50 (Relative to Chimera)” value with human tau [2], in the assay with human tau [3] and with human tau [5] were 0.85 relative to Chimera, 1.37 relative to Chimera and 1.12 relative to Chimera, respectively.

B2: VH3/VK4 (antibody, human IgG4 S228P, kappa)
heavy chain: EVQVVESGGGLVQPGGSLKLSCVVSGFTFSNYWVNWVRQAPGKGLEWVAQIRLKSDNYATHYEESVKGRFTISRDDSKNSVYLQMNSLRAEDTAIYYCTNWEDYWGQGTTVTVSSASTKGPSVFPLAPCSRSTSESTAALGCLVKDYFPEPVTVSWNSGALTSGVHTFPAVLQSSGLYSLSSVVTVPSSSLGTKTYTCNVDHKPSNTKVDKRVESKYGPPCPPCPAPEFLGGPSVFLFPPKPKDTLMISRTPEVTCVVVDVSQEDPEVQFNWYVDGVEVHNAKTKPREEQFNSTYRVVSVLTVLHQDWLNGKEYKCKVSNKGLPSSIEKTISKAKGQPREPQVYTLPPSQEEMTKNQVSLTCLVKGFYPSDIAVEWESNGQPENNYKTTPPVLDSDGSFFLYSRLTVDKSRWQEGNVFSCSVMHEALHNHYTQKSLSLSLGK
light chain: DIVMTQSPDSLAVSLGERATISCRASQSVSTSRYSYIHWYQQKPGQPPKLLIKYASNLESGVPSRFSGSGSGTDFTLTISSLQPEDFATYYCHHSWEIPLTFGQGTKLEIKRTVAAPSVFIFPPSDEQLKSGTASVVCLLNNFYPREAKVQWKVDNALQSGNSQESVTEQDSKDSTYSLSSTLTLSKADYEKHKVYACEVTHQGLSSPVTKSFNRGEC
notes: humanized HJ8.5 variant, combination of VH3 and VK4
Consider B2, for which the “IC50 (Relative to Chimera)” value with human tau [2] is 1.22 relative to Chimera; in the assay with human tau [3], 0.89 relative to Chimera; with human tau [5], 1.51 relative to Chimera.

B3: VH4/VK3 (antibody, human IgG4 S228P, kappa, V domains shown)
VH: EVQLVESGGGLVQPGGSLKLSCVVSGFTFSNYWVNWVRQAPGKGLEWVAQIRLKSDNYATHYEESVKGRFTISRDDSKNSLYLQMNSLRAEDTAIYYCTNWEDYWGQGTTVTVSS
VL: DIVLTQSPDSLAVSLGERATISCRASQSVSTSRYSYIHWYQQKPGQPPKLLIKYASNLESGVPSRFSGSGSGTDFTLTISSLQPEDFATYYCHHSWEIPLTFGQGTKLEIKR
notes: humanized HJ8.5 variant, combination of VH4 and VK3
As for B3, the “IC50 (Relative to Chimera)” value with human tau [2] was 1.9 relative to Chimera; with human tau [3], 1.79 relative to Chimera; with human tau [5], 1.31 relative to Chimera.

B4: VH1/VK3 humanized anti-tau antibody (antibody, human IgG4 S228P, kappa)
heavy: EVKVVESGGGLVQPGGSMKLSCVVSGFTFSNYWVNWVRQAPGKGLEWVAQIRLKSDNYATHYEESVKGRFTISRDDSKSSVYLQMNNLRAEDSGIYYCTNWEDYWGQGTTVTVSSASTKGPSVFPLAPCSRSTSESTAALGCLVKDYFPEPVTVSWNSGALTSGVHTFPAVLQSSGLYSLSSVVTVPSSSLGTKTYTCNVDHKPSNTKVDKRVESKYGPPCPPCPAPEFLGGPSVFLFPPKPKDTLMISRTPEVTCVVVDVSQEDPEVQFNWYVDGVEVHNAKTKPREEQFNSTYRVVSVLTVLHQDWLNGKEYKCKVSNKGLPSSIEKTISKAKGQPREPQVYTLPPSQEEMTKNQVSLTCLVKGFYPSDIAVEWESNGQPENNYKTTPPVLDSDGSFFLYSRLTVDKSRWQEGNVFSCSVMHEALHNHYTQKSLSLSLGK
light: DIVLTQSPDSLAVSLGERATISCRASQSVSTSRYSYIHWYQQKPGQPPKLLIKYASNLESGVPSRFSGSGSGTDFTLTISSLQPEDFATYYCHHSWEIPLTFGQGTKLEIKRTVAAPSVFIFPPSDEQLKSGTASVVCLLNNFYPREAKVQWKVDNALQSGNSQESVTEQDSKDSTYSLSSTLTLSKADYEKHKVYACEVTHQGLSSPVTKSFNRGEC
notes: Humanized variant of HJ8.5
For B4, in assay [1], the Kd came to 1.94 nM, the koff was found to be 0.000572 s⁻¹ and the kon came to 295000 M⁻¹ s⁻¹. In assay [7], the Kd was found to be 2.09 nM, the koff was 0.000599 s⁻¹ and the kon is 287000 M⁻¹ s⁻¹. Besides, in assay [4], the dissociation constant (Kd) stood at 2.24 nM, the koff is 0.000626 s⁻¹ and the kon is 280000 M⁻¹ s⁻¹.

B5: VH2/VK3 humanized anti-tau antibody (antibody, human IgG4 S228P, kappa)
heavy: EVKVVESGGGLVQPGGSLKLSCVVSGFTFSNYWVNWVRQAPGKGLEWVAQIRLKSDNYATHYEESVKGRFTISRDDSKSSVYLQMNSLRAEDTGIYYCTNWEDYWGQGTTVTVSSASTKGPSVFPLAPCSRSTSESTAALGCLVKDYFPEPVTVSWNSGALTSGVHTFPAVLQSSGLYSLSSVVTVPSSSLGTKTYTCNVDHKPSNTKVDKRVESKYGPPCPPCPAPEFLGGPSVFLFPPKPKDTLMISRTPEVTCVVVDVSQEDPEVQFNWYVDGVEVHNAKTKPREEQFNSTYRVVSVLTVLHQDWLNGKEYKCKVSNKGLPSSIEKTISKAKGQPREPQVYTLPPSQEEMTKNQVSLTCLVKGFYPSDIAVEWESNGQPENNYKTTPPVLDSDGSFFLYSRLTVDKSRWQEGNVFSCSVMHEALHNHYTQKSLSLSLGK
light: DIVLTQSPDSLAVSLGERATISCRASQSVSTSRYSYIHWYQQKPGQPPKLLIKYASNLESGVPSRFSGSGSGTDFTLTISSLQPEDFATYYCHHSWEIPLTFGQGTKLEIKRTVAAPSVFIFPPSDEQLKSGTASVVCLLNNFYPREAKVQWKVDNALQSGNSQESVTEQDSKDSTYSLSSTLTLSKADYEKHKVYACEVTHQGLSSPVTKSFNRGEC
notes: Humanized variant of HJ8.5
As for B5, the Kd was 1.83 nM in assay [1], 2.13 nM in assay [8] and 2.44 nM in assay [4]. For the same molecule, the koff is 0.000533 s⁻¹ in assay [1], 0.000593 s⁻¹ in assay [8] and 0.000653 s⁻¹ in assay [4]. For the same molecule, the figures for the kon in assay [1], in assay [8] and in assay [4] were 292000 M⁻¹ s⁻¹, 280000 M⁻¹ s⁻¹ and 268000 M⁻¹ s⁻¹, respectively. Besides, the “IC50 (Relative to Chimera)” value was 0.97 relative to Chimera in the assay with human tau [2], 1.17 relative to Chimera in the assay with human tau [3] and 0.94 relative to Chimera with human tau [5].

B6: VH2/VK4 (antibody, human IgG4 S228P, kappa)
heavy chain: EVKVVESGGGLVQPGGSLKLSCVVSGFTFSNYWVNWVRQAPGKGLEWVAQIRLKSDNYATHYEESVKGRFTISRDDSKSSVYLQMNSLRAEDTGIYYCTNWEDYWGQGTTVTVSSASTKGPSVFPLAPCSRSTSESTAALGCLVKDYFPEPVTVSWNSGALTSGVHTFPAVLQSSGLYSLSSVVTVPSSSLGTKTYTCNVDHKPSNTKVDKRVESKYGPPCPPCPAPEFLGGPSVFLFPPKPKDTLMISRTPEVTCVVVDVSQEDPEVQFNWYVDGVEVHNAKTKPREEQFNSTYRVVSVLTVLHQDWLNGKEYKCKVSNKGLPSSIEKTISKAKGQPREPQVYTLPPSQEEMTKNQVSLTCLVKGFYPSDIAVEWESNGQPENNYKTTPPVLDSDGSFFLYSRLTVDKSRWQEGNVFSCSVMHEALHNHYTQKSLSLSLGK
light chain: DIVMTQSPDSLAVSLGERATISCRASQSVSTSRYSYIHWYQQKPGQPPKLLIKYASNLESGVPSRFSGSGSGTDFTLTISSLQPEDFATYYCHHSWEIPLTFGQGTKLEIKRTVAAPSVFIFPPSDEQLKSGTASVVCLLNNFYPREAKVQWKVDNALQSGNSQESVTEQDSKDSTYSLSSTLTLSKADYEKHKVYACEVTHQGLSSPVTKSFNRGEC
notes: humanized HJ8.5 variant, combination of VH2 and VK4
As for B6, the “IC50 (Relative to Chimera)” value is 1.03 relative to Chimera with human tau [2], 1.36 relative to Chimera with human tau [3] and 1.37 relative to Chimera in the assay with human tau [5].

B7: VH2/VK1 (antibody, human IgG4 S228P, kappa, V domains shown)
VH: EVKVVESGGGLVQPGGSLKLSCVVSGFTFSNYWVNWVRQAPGKGLEWVAQIRLKSDNYATHYEESVKGRFTISRDDSKSSVYLQMNSLRAEDTGIYYCTNWEDYWGQGTTVTVSS
VL: DIVLTQSPDSLAVSLGERATISCRASQSVSTSRYSYIHWYQQKPGQPPKLLIKYASNLESGVPSRFSGSGSGTDFTLNIHPLEEEDFATYYCHHSWEIPLTFGQGTKLEIKR
notes: humanized HJ8.5 variant, combination of VH2 and VK1
For B7, the “IC50 (Relative to Chimera)” value was 1.02 relative to Chimera with human tau [2], 1.43 relative to Chimera in the assay with human tau [3] and 1.02 relative to Chimera with human tau [5].

B8: VH1/VK4 (antibody, human IgG4 S228P, kappa)
heavy chain: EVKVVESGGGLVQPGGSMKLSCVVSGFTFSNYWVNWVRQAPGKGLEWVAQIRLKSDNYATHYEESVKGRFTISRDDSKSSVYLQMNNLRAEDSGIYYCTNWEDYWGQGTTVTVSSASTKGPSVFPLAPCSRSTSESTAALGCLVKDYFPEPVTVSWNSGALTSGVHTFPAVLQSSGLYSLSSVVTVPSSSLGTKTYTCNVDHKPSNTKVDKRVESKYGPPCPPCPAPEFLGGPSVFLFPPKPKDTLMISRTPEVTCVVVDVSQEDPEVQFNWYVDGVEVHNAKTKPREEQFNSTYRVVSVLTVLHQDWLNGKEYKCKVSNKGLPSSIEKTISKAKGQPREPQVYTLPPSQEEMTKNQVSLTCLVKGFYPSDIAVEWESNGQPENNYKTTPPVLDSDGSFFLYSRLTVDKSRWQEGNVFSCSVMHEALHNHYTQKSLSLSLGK
light chain: DIVMTQSPDSLAVSLGERATISCRASQSVSTSRYSYIHWYQQKPGQPPKLLIKYASNLESGVPSRFSGSGSGTDFTLTISSLQPEDFATYYCHHSWEIPLTFGQGTKLEIKRTVAAPSVFIFPPSDEQLKSGTASVVCLLNNFYPREAKVQWKVDNALQSGNSQESVTEQDSKDSTYSLSSTLTLSKADYEKHKVYACEVTHQGLSSPVTKSFNRGEC
notes: humanized HJ8.5 variant, combination of VH1 and VK4
Turning to B8, the “IC50 (Relative to Chimera)” value with human tau [2] is 1.02 relative to Chimera; with human tau [3], 2.05 relative to Chimera; with human tau [5], 1.41 relative to Chimera.

B9: VH3/VK1 (antibody, human IgG4 S228P, kappa, V domains shown)
VH: EVQVVESGGGLVQPGGSLKLSCVVSGFTFSNYWVNWVRQAPGKGLEWVAQIRLKSDNYATHYEESVKGRFTISRDDSKNSVYLQMNSLRAEDTAIYYCTNWEDYWGQGTTVTVSS
VL: DIVLTQSPDSLAVSLGERATISCRASQSVSTSRYSYIHWYQQKPGQPPKLLIKYASNLESGVPSRFSGSGSGTDFTLNIHPLEEEDFATYYCHHSWEIPLTFGQGTKLEIKR
notes: humanized HJ8.5 variant, combination of VH3 and VK1
Consider B9, for which the “IC50 (Relative to Chimera)” value is 1.42 relative to Chimera with human tau [2], 1.16 relative to Chimera with human tau [3] and 1.04 relative to Chimera with human tau [5].

B10: VH1/VK1 (antibody, human IgG4 S228P, kappa, V domains shown)
VH: EVKVVESGGGLVQPGGSMKLSCVVSGFTFSNYWVNWVRQAPGKGLEWVAQIRLKSDNYATHYEESVKGRFTISRDDSKSSVYLQMNNLRAEDSGIYYCTNWEDYWGQGTTVTVSS
VL: DIVLTQSPDSLAVSLGERATISCRASQSVSTSRYSYIHWYQQKPGQPPKLLIKYASNLESGVPSRFSGSGSGTDFTLNIHPLEEEDFATYYCHHSWEIPLTFGQGTKLEIKR
notes: humanized HJ8.5 variant, combination of VH1 and VK1
Turning to B10, the results for the “IC50 (Relative to Chimera)” value with human tau [2], in the assay with human tau [3] and in the assay with human tau [5] were 1.11 relative to Chimera, 1.49 relative to Chimera and 0.84 relative to Chimera, respectively.

(Values after US20180371066A1 (C2N DIAGNOSTICS, published 2018).)
